Biological target: N-syndecan ectodomain IgG fusion protein (UniProt P33671 45-387, glycosylated (proteoglycan fragment with heparan sulfate chains))
Assay: ELISA

N-syndecan ectodomain IgG fusion protein, sequence (P33671 45-387): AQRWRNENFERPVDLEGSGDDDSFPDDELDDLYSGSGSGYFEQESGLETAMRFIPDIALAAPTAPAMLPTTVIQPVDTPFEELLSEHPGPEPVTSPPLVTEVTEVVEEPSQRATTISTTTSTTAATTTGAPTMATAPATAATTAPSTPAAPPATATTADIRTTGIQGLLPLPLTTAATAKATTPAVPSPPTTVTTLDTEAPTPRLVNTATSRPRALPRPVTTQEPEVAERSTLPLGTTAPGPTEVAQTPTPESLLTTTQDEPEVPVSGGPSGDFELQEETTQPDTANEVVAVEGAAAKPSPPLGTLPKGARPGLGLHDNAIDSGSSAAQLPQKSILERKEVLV

Row | Binder | Kd
1 | heparin-binding EGF-like growth factor (HB-EGF), human recombinant (ligand, UniProt Q99075 63-148, looked up) DLQEADLDLLRVTLSSKPQALATPNKEEHGKRKKKGKGLGKKRDPCLRKYKDFCIHGECKYVKELRAPSCICHPGYHGERCHGLSL | 15 nM
2 | heparin-binding growth-associated molecule (HB-GAM; pleiotrophin) (ligand, UniProt P63090 33-168, looked up) GKKEKPEKKVKKSDCGEWQWSVCVPTSGDCGLGTREGTRTGAECKQTMKTQRCKIPCNWKKQFGAECKYQFQAWGECDLNTALKTRTGSLKRALHNADCQKTVTISKPCGKLTKPKPQAESKKKKKEGKKQEKMLD | 12 nM

Reference: publication PMC2064262 (The Journal of Cell Biology, 2006)
